Article PMC4932917, “Structural basis for acyl-group discrimination by human Gcn5L2” (Acta Crystallographica. Section D, Structural Biology, 2016)

Substrate: CC(=O)SCCNC(=O)CCNC(=O)[C@H](O)C(C)(C)COP(=O)(O)OP(=O)(O)OC[C@H]1O[C@@H](n2cnc3c(N)ncnc32)[C@H](O)[C@@H]1OP(=O)(O)O
Assay: purified protein
Settings: acyl-CoA site of the active site

B1: human Gcn5L2 (hsGcn5L2) (Homo sapiens) (protein)
chain: GIIEFHVIGNSLTPKANRRVLLWLVGLQNVFSHQLPRMPKEYIARLVFDPKHKTLALIKDGRVIGGICFRMFPTQGFTEIVFCAVTSNEQVKGYGTHLMNHLKEYHIKHNILYFLTYADEYAIGYFKKQGFSKDIKVPKSRYLGYIKDYEGATLMECELNPRIPYT
- Km: 0.91 ± 0.09 µM
